Experimental data: paper PMC3832608

Biological target: T1, Corticotropin Releasing Factor receptor 2 (CRF2) (human (endogenous in HT-29)) (UniProt Q13324)
T1 sequence: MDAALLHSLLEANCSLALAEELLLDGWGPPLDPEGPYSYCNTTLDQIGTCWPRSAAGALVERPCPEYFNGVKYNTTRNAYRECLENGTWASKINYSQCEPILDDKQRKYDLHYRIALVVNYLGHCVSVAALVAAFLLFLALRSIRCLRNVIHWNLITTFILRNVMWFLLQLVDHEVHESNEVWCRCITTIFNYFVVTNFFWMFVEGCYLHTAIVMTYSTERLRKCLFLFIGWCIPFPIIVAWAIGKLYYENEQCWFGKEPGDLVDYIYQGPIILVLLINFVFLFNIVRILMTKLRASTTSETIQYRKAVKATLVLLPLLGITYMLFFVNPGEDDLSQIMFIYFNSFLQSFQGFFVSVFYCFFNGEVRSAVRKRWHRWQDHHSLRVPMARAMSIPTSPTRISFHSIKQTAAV

B1: Urocortin 3 (Ucn3) (peptide)
peptide: FTLSLDVPTNIMNLLFNIAKAKNLRAQAAANAHLMAQI
cAMP production by HT-29 cells treated with 1 µM Ucn3 (ELISA kit); completely reversed by 1 µM astressin2b (A2b) (pM of cAMP/10^5 cells): 2.4

B2: Corticotropin releasing factor (CRF) (peptide)
peptide: SEEPPISLDLTFHLLREVLEMARAEQLAQQAHSNRKLMEIIGK
cAMP production by HT-29 cells treated with 1 µM CRF (ELISA kit); completely reversed by 1 µM astressin2b (A2b) (pM of cAMP/10^5 cells): 0.5

B3: Urocortin 2 (Ucn2) (peptide)
peptide: IVLSLDVPIGLLQILLEQARARAAREQATTNARILARVGHC
cAMP production by HT-29 cells treated with 1 µM Ucn2 (ELISA kit); completely reversed by 1 µM astressin2b (A2b) (pM of cAMP/10^5 cells): 1
